This note sets out measurements from patent US6428985 (REGENTS OF THE UNIVERSITY OF MICHIGAN, dated 2002).

Where a chain is given by its changes, count along the chain named. Names and notes keep the numbering of the source.

Test [1] concerns the target T1, mIL-10R1 on Ba/F3-mIL-10R1 cells (mouse pro-B cell line stably transfected with mIL-10R1) (murine, UniProt Q61727 17-575).
T1 construct: whole, on cells; also called IL-10 receptor
T1 sequence (looked up): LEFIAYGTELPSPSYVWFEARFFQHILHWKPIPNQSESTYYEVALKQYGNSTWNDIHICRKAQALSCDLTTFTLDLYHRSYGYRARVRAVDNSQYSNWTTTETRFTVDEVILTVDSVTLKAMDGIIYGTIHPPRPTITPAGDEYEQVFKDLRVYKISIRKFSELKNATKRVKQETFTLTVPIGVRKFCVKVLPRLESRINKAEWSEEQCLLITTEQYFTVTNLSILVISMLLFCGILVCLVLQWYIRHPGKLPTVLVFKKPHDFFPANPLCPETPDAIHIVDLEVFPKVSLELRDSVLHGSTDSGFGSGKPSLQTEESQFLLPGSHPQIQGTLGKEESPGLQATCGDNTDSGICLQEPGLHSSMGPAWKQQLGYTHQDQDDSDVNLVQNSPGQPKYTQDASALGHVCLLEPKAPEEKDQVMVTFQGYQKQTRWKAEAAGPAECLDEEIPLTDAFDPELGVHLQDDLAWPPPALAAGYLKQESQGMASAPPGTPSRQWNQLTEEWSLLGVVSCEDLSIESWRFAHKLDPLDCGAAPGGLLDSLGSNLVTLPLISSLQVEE
Nature of the test: flow cytometry on Ba/F3-mIL-10R1 cells, 100 ng purified IL-10-myc-his, 4° C. for 2 h. A general note: In flow cytometry, cells or beads pass a laser one at a time.

In test [2] the target is T1, mIL-10R1 on Ba/F3-mIL-10R1 cells (mouse …). Put plainly: flow cytometry on Ba/F3-mIL-10R1 cells.

B1: purified hIL-10-myc-his (human IL-10 with carboxyl terminal myc-his tag) (ligand)
chain: SPGQGTQSENSCTHFPGNLPNMLRDLRDAFSRVKTFFQMKDQLDNLLLKESLLEDFKGYLGCQALSEMIQFYLEEVMPQAENQDPDIKAHVNSLGENLKTLRLRLRRCHRFLPCENKSKAVEQVKNAFNKLQEKGIYKAMSEFDIFINYIEAYMTMKIRN
notes: also called C-terminal myc-his tagged hIL-10; not shown: C-terminal myc-his tag from the pcDNA3.1-myc-his vector
Consider B1, for which the binding result in test [1] was “binds”.

B2: hIL-10 with amino terminal FLAG tag (pFLAGCMV-1 construct) (ligand, not shown: small tags and cut ends)
chain: B1 chain
notes: also called amino terminal FLAG construct of hIL-10
Take B2: the binding result in test [2] is given as “binds”.

B3: purified hIL-10(I87A)-myc-his (human IL-10 with the single mutation, carboxyl terminal myc-his tag) (ligand)
chain: B1 chain with I87A
notes: also called hIL-10(187A); Ala87 version of IL-10; not shown: C-terminal myc-his tag from the pcDNA3.1-myc-his vector
With B3, the binding result in test [1] is “binds”.
